This is an account of results in US20230025129A1 (KYMAB, published 2023).

First the molecules themselves.
T1: mouse matriptase-2 ECD protein his tag (mouse, UniProt Q9DBI0 80-811)
T1 sequence: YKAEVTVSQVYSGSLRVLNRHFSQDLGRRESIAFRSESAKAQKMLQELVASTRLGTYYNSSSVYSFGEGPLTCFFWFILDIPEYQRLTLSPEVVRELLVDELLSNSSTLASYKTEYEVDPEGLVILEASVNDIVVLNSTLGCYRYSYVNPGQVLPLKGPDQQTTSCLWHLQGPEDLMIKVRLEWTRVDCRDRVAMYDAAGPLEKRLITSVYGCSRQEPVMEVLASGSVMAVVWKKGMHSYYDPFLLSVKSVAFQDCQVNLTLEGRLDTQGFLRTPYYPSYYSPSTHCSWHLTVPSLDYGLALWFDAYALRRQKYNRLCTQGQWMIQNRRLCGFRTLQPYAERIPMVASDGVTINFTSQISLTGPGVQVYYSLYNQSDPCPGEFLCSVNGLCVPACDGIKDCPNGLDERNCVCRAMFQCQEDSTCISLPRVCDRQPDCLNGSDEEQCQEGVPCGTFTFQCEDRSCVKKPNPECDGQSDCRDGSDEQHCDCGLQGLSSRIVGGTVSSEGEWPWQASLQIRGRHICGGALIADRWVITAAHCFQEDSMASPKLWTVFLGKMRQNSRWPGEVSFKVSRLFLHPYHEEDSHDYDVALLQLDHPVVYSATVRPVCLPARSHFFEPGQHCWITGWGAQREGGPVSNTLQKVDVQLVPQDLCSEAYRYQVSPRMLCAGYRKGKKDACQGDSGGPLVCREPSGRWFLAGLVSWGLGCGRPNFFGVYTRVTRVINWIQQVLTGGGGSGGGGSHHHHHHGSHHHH

T2: human MTP-2 expressed on HEK293 cells (human, UniProt Q8IU80 1-811)
T2 sequence: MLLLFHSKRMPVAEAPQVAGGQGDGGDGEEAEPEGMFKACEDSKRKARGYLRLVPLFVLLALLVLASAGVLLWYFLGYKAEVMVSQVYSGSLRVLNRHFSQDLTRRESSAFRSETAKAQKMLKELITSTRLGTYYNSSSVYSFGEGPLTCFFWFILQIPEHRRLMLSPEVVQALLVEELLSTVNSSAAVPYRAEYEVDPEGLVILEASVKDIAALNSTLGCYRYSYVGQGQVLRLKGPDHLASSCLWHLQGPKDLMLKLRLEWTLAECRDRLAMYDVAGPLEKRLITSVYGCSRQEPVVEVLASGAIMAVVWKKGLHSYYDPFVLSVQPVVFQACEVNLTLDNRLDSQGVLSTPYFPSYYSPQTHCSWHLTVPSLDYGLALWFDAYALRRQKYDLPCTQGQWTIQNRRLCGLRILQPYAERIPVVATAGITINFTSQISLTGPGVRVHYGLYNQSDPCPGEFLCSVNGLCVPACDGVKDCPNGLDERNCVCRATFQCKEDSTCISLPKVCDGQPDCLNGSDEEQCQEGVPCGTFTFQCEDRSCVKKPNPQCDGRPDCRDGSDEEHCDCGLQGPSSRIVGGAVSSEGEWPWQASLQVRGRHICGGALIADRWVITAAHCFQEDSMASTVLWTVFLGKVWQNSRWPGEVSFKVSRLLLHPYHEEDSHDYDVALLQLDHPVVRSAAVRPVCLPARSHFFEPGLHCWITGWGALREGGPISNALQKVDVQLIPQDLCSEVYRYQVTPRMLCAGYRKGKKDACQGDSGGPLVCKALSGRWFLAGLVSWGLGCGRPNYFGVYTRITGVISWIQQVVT

T3: human matriptase-2 ECD protein his tag (human, UniProt Q8IU80 78-811)
T3 sequence: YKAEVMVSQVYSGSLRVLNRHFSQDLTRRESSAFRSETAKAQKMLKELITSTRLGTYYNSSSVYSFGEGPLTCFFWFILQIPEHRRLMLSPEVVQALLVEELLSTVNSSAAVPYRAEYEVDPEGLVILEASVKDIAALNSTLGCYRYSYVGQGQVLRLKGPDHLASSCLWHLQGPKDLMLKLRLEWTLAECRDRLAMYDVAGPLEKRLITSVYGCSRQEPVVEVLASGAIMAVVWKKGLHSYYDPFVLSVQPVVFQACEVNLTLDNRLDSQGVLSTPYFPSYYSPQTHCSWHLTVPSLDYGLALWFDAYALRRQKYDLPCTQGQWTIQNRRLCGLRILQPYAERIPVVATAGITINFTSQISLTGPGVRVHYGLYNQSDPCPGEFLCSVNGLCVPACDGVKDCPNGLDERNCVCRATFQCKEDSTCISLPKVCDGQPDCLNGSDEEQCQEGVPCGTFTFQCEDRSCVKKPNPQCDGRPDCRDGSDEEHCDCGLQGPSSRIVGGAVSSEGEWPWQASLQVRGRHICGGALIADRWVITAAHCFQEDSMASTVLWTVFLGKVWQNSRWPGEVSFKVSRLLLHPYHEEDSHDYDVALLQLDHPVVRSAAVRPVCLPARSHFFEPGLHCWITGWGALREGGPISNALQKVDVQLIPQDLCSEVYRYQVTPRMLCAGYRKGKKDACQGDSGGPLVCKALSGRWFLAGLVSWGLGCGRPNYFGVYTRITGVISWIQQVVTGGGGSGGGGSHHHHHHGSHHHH

B1: NORI-024 (antibody, human IgG4 S228P, lambda, V domains shown)
VH: QVQLVQSGPELKKPGASVKVSCKASGYTFTNFGISWVRQAPGQGLEWMGWISAYSGFTNFAQKFQGRVSMTTDTSTSTVYMELKSLRSDDTAVYYCAREGYSNYEDWFDPWGQGTLVTVSS
VL: SYELTQPPSVSVSPGQTARITCSGDALPKKYAYWYQQKSGQAPVLVIYEDSKRPSGIPERISGSNSGTMATLTISGAQVEDEADYYCYSTDSSGNHRVFGGGTKLTVLG
B2: NORI-027 (antibody, human IgG4 S228P, lambda, V domains shown)
VH: B1 VH with P9A, T30N, F32Y, F57Y, F60I, S69T, S77N, K84G, Y104F
VL: B1 VL with A26E
B3: NORI-025 (antibody, human IgG4 S228P, lambda, V domains shown)
VH: QVQLVESGGGVVQPGRSLRLSCTASGVTFTNFDMHWVRQTPGKGLEWVAVIWYDESYSYYADSVQGRFTISRDNSKNSLYLQMNSLRADDTAVYYCARGWTGSYVFDYWGQGTLVTVSS
VL: QSVLTQPPSVSEAPRQRVTISCSGSSSNIGNNAVNWYQQLPGKAPKLLISYDDLLPSGVSDRFSGSKSGTSASLAISGLQSADEADYYCAAWDDSLNAVVFGGGTKLTVLG
B4: NORI-023 (antibody, human IgG4 S228P, lambda, V domains shown)
VH: QVQLVESGGGLVKPGGSLRLSCAASGFTFSDYYMSWIRQAPGKGLEWVSYISSSGGNRYYADSVKGRFTISRDNAKNSLYLQMNSLRAEDTAVYYCARGGLRYFDWADFWGQGTLVTVSS
VL: QSVLTQPPSVSAAPGQKVTISCSGSSSNIGNNYVSWYQQLPGTAPKLLIYDNNKRPSGIPDRFSGSKSGTSATLGIPELQTGDEADYYCGTWDNSLSAGVFGGGTKLTVLG
B5: NORI-022 (antibody, human IgG4 S228P, lambda, V domains shown)
VH: EVRLVESGGGLVQSGGSLRLSCAASGFTFSTYTMNWVRQAPGKGLEWVSYISIRNSIIDYADSVKGRFTISRDNAKNSLYLQMNSLRDEDTAVYYCAREEFCGTTSCYFLDYWGQGILVTVSS
VL: QSVLTQPPSVSGAPGQRVTISCTGSSSNIGAGYDVHWYQQLPGTAPKLLIYGNSNRPSGVPDRFSGSKSGTSASLAITGLQAEDEADYYCQSYDSSLSGYVFGTGTKVTVLG
B6: NORI-026 (antibody, human IgG4 S228P, kappa, V domains shown)
VH: QVQLVESGGGVVQPGRSLRLSCAASGFTFSYFGMHWVRQAPGKGLEWVADISYDGSDENYADSVKGRFTISRDNSKNTLSLQMNSLRAEDTAVYYCAKETYQSLMYLEYWGQGILVTVSS
VL: AIQMTQSPSSLSASVGDRVTITCRASQDIRNDLGWYQQKPGKAPKLLIYTAPSLQSGVPSRFSGSGSGTDFTLTIGSLQPEDFATYYCLQDYNYPWTFGQGTKVEIKR

Changes are numbered by the printed parent chain.

The target of one assay is T1, mouse matriptase-2 ECD protein his tag. The assay can be described thus: cell-based or functional assay.
With B1, the “Inhibition enzymatic activity mouse MTP2 protein (IC50)” value was found to be 6.8 nM.

Regarding B2, the “Inhibition enzymatic activity mouse MTP2 protein (IC50)” value was found to be 40.8 nM.

Consider B3, for which the “Inhibition enzymatic activity mouse MTP2 protein (IC50)” value is 6.21 nM.

In the case of B4, the “Inhibition enzymatic activity mouse MTP2 protein (IC50)” value is 2.92 nM.

Turning to B5, the “Inhibition enzymatic activity mouse MTP2 protein (IC50)” value was 2.98 nM.

On to B6, for which the “Inhibition enzymatic activity mouse MTP2 protein (IC50)” value was found to be 6.22 nM.

In another assay the target is T2, human MTP-2 expressed on HEK293 cells. The assay can be described thus: cell-based or functional assay.
Turning to B1, the “Inhibition enzymatic activity human MTP2 on cells (IC50)” value stood at 8.04 nM.

For B2, the “Inhibition enzymatic activity human MTP2 on cells (IC50)” value came out at 16.9 nM.

Regarding B3, the “Inhibition enzymatic activity human MTP2 on cells (IC50)” value came out at 1.88 nM.

Regarding B4, the “Inhibition enzymatic activity human MTP2 on cells (IC50)” value was 13.2 nM.

Consider B5, for which the “Inhibition enzymatic activity human MTP2 on cells (IC50)” value was found to be 0.765 nM.

For the molecule B6, the “Inhibition enzymatic activity human MTP2 on cells (IC50)” value is 0.817 nM.

In a further assay the target is T3, human matriptase-2 ECD protein his tag. The assay can be described thus: cell-based or functional assay.
B1: the “Inhibition enzymatic activity human MTP2 protein (IC50)” value came out at 10.5 nM.

Consider B2, for which the “Inhibition enzymatic activity human MTP2 protein (IC50)” value amounted to 24.9 nM.

On to B3, for which the “Inhibition enzymatic activity human MTP2 protein (IC50)” value worked out at 3.27 nM.

For the molecule B4, the “Inhibition enzymatic activity human MTP2 protein (IC50)” value came out at 5.45 nM.

For the molecule B5, the “Inhibition enzymatic activity human MTP2 protein (IC50)” value was found to be 4.36 nM.

Turning to B6, the “Inhibition enzymatic activity human MTP2 protein (IC50)” value was 5.11 nM.
